Data reported in patent publication US20240247069A1 (Regeneron, published 2024).

Key:
[1] = biological target: T1, mouse FGFR3b-ecto.mmH (mouse, UniProt Q61851 21-801); assay: Biacore SPR, 25 C, mmh-tagged FGFR3
T1 construct: also called moFGFR3b (mmh); monomeric mouse FGFR3b; not shown: mmh tag

[2] = biological target: T2, human FGFR3b-ecto.mmH (human, UniProt P22607 23-806); assay: Biacore SPR, 25 C, mmh-tagged FGFR3
T2 construct: also called hFGFR3b (mmh); hFGFR3b-mmh; not shown: mmh tag
T2 sequence (P22607 other isoform, or with tags, fused parts or gaps): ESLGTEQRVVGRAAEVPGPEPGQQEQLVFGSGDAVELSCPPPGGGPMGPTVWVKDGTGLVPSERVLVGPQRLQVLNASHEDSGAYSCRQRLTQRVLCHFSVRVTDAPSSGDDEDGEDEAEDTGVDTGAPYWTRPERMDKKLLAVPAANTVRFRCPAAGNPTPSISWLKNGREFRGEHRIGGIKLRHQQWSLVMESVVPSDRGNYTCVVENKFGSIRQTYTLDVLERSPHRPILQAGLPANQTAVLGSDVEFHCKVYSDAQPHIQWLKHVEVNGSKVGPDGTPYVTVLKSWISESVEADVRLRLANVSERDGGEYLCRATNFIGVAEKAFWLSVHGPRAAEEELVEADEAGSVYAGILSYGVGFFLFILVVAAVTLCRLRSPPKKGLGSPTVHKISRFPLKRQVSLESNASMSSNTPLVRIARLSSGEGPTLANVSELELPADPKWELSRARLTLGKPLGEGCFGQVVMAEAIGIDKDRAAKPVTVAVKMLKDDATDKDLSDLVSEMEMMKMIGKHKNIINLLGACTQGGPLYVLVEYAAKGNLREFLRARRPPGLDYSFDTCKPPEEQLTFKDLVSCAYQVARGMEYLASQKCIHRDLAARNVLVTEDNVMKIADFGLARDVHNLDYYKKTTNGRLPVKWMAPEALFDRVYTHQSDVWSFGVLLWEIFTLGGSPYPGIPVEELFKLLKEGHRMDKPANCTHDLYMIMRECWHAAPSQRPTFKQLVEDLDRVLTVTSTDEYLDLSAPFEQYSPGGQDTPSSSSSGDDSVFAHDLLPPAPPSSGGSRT

T1 sequence (Q61851 other isoform, or with tags, fused parts or gaps): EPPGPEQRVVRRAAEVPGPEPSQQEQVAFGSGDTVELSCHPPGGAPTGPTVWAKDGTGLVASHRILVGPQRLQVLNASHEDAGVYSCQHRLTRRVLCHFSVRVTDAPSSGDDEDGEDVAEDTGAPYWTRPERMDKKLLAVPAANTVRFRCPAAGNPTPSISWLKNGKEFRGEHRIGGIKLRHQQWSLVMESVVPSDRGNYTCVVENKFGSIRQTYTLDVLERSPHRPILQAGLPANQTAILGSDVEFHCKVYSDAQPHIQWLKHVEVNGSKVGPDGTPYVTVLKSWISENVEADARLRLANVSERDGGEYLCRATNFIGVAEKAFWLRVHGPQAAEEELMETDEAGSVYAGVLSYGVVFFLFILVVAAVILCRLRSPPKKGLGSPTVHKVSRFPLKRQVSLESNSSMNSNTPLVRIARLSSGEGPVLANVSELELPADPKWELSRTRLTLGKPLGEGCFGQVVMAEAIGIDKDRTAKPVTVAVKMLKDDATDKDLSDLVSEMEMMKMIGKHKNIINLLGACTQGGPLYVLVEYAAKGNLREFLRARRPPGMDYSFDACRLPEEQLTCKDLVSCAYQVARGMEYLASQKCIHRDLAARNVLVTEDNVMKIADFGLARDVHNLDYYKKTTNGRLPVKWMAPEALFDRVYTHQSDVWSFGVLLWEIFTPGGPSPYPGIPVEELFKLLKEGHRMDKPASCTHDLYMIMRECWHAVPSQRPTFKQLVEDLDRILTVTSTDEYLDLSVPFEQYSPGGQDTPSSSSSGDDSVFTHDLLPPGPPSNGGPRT

- Kd [1]: 1.27 nM
- Kd [2]: 1.8 nM
B1: H4H30063P (antibody, V domains shown)
VH: QVQLQESGPGLVKPSETLSLTCTVSGDSINSYFWSWIRQLPGKELEWIGHIYSSGSTRYNPSLQSRVTISIDTSKNQFSLKLSSVTAADTAVYYCARGASAVDYWGQGTLVTVSS
VL: EIVLTQSPGTLSLSPGERATLSCRTSQSISSGYLAWYQQKPGQAPRLLIYGASRRATGIPDRFSGSGSGTDFTLTISRLEPEDFVVYYCQQYGSSPYTFGQGTKLEIKR
